PMC5891081

T1: RAD52 wild type (Homo sapiens, UniProt P43351 1-418)
T1 sequence: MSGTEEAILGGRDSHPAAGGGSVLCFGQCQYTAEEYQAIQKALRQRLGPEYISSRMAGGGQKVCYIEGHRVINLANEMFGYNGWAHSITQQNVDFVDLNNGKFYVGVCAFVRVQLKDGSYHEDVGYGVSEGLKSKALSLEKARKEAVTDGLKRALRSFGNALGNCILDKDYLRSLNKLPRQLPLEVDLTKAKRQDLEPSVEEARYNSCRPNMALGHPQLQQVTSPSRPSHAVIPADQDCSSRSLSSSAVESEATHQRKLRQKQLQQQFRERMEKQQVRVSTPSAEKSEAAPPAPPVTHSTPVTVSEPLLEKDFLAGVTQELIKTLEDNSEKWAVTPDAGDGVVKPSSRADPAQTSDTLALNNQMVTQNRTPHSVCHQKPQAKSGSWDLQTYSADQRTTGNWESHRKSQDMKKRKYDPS


Key:
[1] = molecular target: GAL4-DBD-fused RAD52 (10xQ) (human) (UniProt P43351); assay: two-hybrid; yeast; GAL4 DBD-fused RAD52 with NLS-GAL4 AD fusions; lacZ reporter, liquid beta-galactosidase assay, activity relative to RAD52 (Wt)
RAD52 wild type = molecular target: T1, RAD52 wild type; assay: EMSA; 10 uM nucleotides DNA; 16 uL reactions, Cy5-50-mer 10 uM in nucleotides; 5X buffer contains 0.1 M HEPES-NaOH pH 7.5 (20 mM final if 1X); remaining components, salt and temperature cut off in the material; conditions: protein: recombinant; tags: C-terminal His6 construct (pET21a) or pET15b construct; label: 5'-Cy5; single strand, 50 nt

| Molecule | fold change of beta-galactosidase activity against RAD52 (Wt) [1] [fold] | binding result (RAD52 wild type) |
| --- | --- | --- |
| GAL4-DBD-fused RAD52 (10xQ) (from UniProt P43351 1-418) (natural protein) | 1.7 |  |
| TCGCCATCAACTAACGATTCTGTCAAAAACTGACGCGTTGGATGAGGAGA (ssDNA) [FX174-50-1 (oligo 1)] |  | binds |
